The values below come from PMC5566378 (2017).

The labels stand for the following.
B1: human IL-17RC extracellular domain (receptor)
chain: LERLVGPQDATHCSPGLSCRLWDSDILCLPGDIVPAPGPVLAPTHLQTELVLRCQKETDCDLCLRVAVHLAVHGHWEEPEDEEKFGGAADSGVEEPRNASLQAQVVLSFQAYPTARCVLLEVQVPAALVQFGQSVGSVVYDCFEAALGSEVRIWSYTQPRYEKELNHTQQLPDCRGLEVWNSIPSCWALPWLNVSADGDNVHLVLNVSEEQHFGLSLYWNQVQGPPKPRWHKNLTGPQIITLNHTDLVPCLCIQVWPLEPDSVRTNICPFREDPRAHQNLWQAARLQLLTLQSWLLDAPCSLPAEAALCWRAPGGDPCQPLVPPLSWENVTVDKVLEFPLLKGHPNLCVQVNSSEKLQLQECLWADSLGPLKDDVLLLETRGPQDNRSLCALEPSGCTSLPSKASTRAARLGEYLLQDLQSGQCLQLWDDDLGALWACPMDKYIHKR

The target in assay [1] is human IL-17A/F heterodimer, Arg77 to alanine mutant (F-chain) (human, UniProt Q16552 24-155; Q96PD4 31-163, R77A). The assay is described as follows: SPR. Background: SPR reads the build-up and loss of mass on a sensor chip optically.
The target of assay [2] is B1. Description: SPR.

In assay [1], B1 displayed a dissociation constant Kd of 5.4 nM.

B2: human IL-17F homodimer (ligand)
chain: RKIPKVGHTFFQKPESCPPVPGGSMKLDIGIINENQRVSMSRNIESRSTSPWNYTVTWDPNRYPSEVVQAQCRNLGCINAQGKEDISMNSVPIQQETLVVRRKHQGCSVSFQLEKVLVTVGCTCVTPVIHHVQ
B2: the affinity in assay [2], expressed as Kd, was 3.5 nM.

The term Kd denotes the equilibrium constant for the complex coming apart. A lower Kd goes with a tighter complex.
